Measurements published in the nanobody polyreactivity screen of Harvey et al. (2022).

Assay: yeast display, Sf9 membrane polyspecificity reagent, FACS + sequencing; frameworks hold sequencing errors
Method in brief: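 Genes from sorted yeast were amplified by colony PCR, read by MiSeq 2 × 250 sequencing and filtered on CDR length. These cells carried a synthetic nanobody library in Saccharomyces cerevisiae BJ5465 and were sorted by FACS into low and high (top ~1%) gates on anti-HA and streptavidin fluorescence. Polyreactivity is labelled according to the gate of origin.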

Row | Sequence | polyreactivity (PSR sort gate)
1 | QVQLVESGVGLVQAGGSLRLSCAASGFIFHRNAMGWYRQAPGKERELVASITKRGGNTYYADSVKGRFTISRDNAKNTVYLQMNSLKPEDTAVYYCATHLWGWDWKRDYWGQGTQVTVSS | high polyreactivity
2 | QVQLVESGVGLVQAGGSLRLSCAASGFIFPTYAMGWYRQAPGKEREFVASITRRGGSTYYADSVKGRFTISRDNAKNSVYLQMNSLKPEDTAVYYCAAGYYGFRGGGSDYWGQGTQVTVSS | high polyreactivity
3 | QVQLVESGVGLVQAGGSLRLSCAASGFIFRKYTMGWYRQAPGKERELVATIDSSGGSTYYADSVKGRFTISRDNAKNTVYLQMNSLKPEDTAVYYCNADLRELSPWYWYSGEMDYWGQGTQVTVSS | low polyreactivity
4 | QVQLVESGVGLVQAGGSLRLSCAASGFIFYRNAMGWYRPAPGKERELVAGISRVGSTYYADSVKGRFTISRDNAKNTVYLQMKSLKPEDTAVYYCATSTYAYRRNSYYYTRPRFGYWGQGTQVSVSS | high polyreactivity
5 | QVQLVESGVGLVQAGGSLRLSCAASGFILTAYDMGWYRQAPGKERELVAAIDWIGGSTYYADSVKGRFTISRDNAKNTVYLQMNSLKPEDTAVYYCAARFYSYVYRLDYWGQGTQVTVSS | low polyreactivity
6 | QVQLVESGVGLVQAGGSLRLSCAASGFTFSYNALGWYRQAPGKERELVAAISSSGGSTYYADSVKGRFTISRDNAKNTVYLQMNILKPEDTAVYYCAVPYLTLYGRTYDYWGHGTQVTVSS | high polyreactivity
7 | QVQLVESGVGLVQAGGSLRLSCAASGFTISYYTIGWSRQAPGKDRELVAAISSTGVSTYYADSVKGRFTISRDTAKNTVYLPLNSLKPEDTSVYYCAADYYGVYEYYYWGQGTQVTVSS | high polyreactivity
8 | QVQLVESGVGLVQAGGSLRLSCAASGGTFRPYAMGWYRHAPGKESELVAAISYTGSTYYADSVKGRFTISRDNAKNTVYLQMNSLKPVDTAVYYCAKDLWYPPRFDYWGQGTQVTVSS | low polyreactivity
9 | QVQLVESGVGLVQAGGSLRLSCAASGIIFKVYAMGWYRQAPGKERELVAAISKSGGSTYYADSVKGRFTISRDNAKNTVYLQMNSLKPEDTAVYYCAARDYARYASYYYWGLGTQVTVSS | high polyreactivity
10 | QVQLVESGVGLVQAGGSLRLSCAASGIIFYDNALGWYRQAPGKERELVAAITDSGGTTYYADSVKGRFTISRDNAKNTVYLEMNSLKPEDNAVYYCAAETTATHGFAYDYWGQGTQVTVSS | low polyreactivity
11 | QVQLVESGVGLVQAGGSLRLSCAASGIIFYEYAMGWNRQAPWKERELVATITSGGSTNYADSVKGRFTISRDNAKNTVYLQMNSLKPEDTAVYYCNADWWWGYGYWGQGTQVTVSS | low polyreactivity
12 | QVQLVESGVGLVQAGGSLRLSCAASGITFSYYAMGWYRQAPGKERELVAAISGSGTSTYYADSVKGRFTISRDNAKNTVYLQMNSLKPEDTAVYYCAAGPPRKPGYYYWGQGTQVTVSS | high polyreactivity
13 | QVQLVESGVGLVQAGGSLRLSCAASGITFTGYAMGWYRQAPGKERELVAVISETGGSTYADSVKGRFTISRDNAKNTVYLQMNSLKPEDTAVYYCATRLWWPYSTAWAKMDYWGQGTQVTVSS | low polyreactivity
14 | QVQLVESGVGLVQAGGSLRLSCAASGNIFWWNAMGWYRQAPGKERELVAAITSDSTTYYADSVKGRFTISRDNAKKTVYFQMNSLKPEDTAVYYCAAYSYGGQGVDYGYWGQGTQVNVSS | low polyreactivity
15 | QVQLVESGVGLVQAGGSLRLSCAASGNIITTYAMGWYRQAPGKERELVAAISRTGGRTSYADSVKGRFTISRDNAKNTVYLQMNSLKPEDTAVYYCAAVQTVRQSAPRARILSDYWGQGTQVTVSS | high polyreactivity
16 | QVQLVESGVGLVQAGGSLRLSCAASGNILGYNAIGWYRQAPGKETELVAAISWIGGSTYYADSVKGRFTISRDNAKNTVYLQMNSLKPEDTAVYYCAARYRTYFTYEYWGQGTQVTVSS | low polyreactivity
17 | QVQLVESGVGLVQAGGSLRLSCAASGRIFHINAMGWYRQAPGKERELVATISGTDRTTYADSVKGRFTISRDNAKNTVYLQMNSLKPEDTAVYYCAAPTDFLFWEFDYWGQGTQVTVSS | low polyreactivity
18 | QVQLVESGVGLVQAGGSLRLSCAASGRIFIKYAMGWYRQAPGKEREFVAAISGRGGSTYYADSVKGRFTISRDNAKNTVYLQMNSLKPEDTAVYYCAKRFFSSGTAAGMYYWGQGTQVTVSS | high polyreactivity
19 | QVQLVESGVGLVQAGGSLRLSCAASGRIFRTYAMGWYRQAPGKERELVAAITSGGGSTYYADSVKGRFTISRDNAKNTVYLQMNSLKPEDTAVYYCAARPGIRSYPPGYGYWGQGTQVTVSS | high polyreactivity
20 | QVQLVESGVGLVQAGGSLRLSCAASGRIFRWYPMGWYRQAPGKERELVASITWNGGSTYYADSVKGRFTISRDNAKNTVYLQMKSLKPEDTAVYYCAVPFYRGPEMGYWGQGTQVTVSS | high polyreactivity
21 | QVQLVESGVGLVQAGGSLRLSCAASGRIFTPYAMGWYRQAPGKERELVAAITGSGGITYYADSVKGRFTISRDNSKNTVYLQMNSLKPEDTAVYYCNADTPVWDGHAYPGDYWGQGTQVTVSS | low polyreactivity
22 | QVQLVESGVGLVQAGGSLRLSCAASGRNFGTNAIGWYRPAPGKERELVAAISSSGGSTYYADSVKGRFTISRDNAKNTVYLQMNSLKPEDTAVYYCAKGWHRGVGFGYWGQGTEVTVSS | high polyreactivity

Row | Sequence | polyreactivity (PSR sort gate)
23 | QVQLVESGVGLVQAGGSLRLSCAASGRTIPIYAMGWYRQAPGKERELVASITRSGGSTYYADSVKGRFTISRDNAKYTVYLQMNSLKPEDTAVYYCAAAANSYSVYSGKFYYWGQGTQVTVSS | high polyreactivity
24 | QVQLVESGVGLVQAGGSLRLSCAASGRTLGVYTMGWYRQAPGKERELVAAITTGGSTKYADSVKGRFTISRDNAKNTVYLQMNSLKPEDTAVYYCATDLVFDKRYWYDYWGQGTQVTVSS | low polyreactivity
25 | QVQLVESGVGLVQAGGSLRLSCAASGSIFESYAMGWYRQAPGKVRELVADITYDGGITYYADSVKGRFTISRDNAKNTVYLQMNSLKPEDTAVYYCAKQYYFTFWGQGTQVTVSS | low polyreactivity
26 | QVQLVESGVGLVQAGGSLRLSCAASGSIFGYNDMGWYRQAPGKERELVAVITSGGSTNYADSVKGRFTISRDNAKNTVYLQMNSLKPEDTAVYYCNAEGVFGDGRSGFYWYDYWGQGTQVTVSS | low polyreactivity
27 | QVQLVESGVGLVQAGGSLRLSCAASGSIFLHNAMGWYRQAPGKERELVAGITGSGGSTYYADSVKGRFTISRDNAKNTVYLQMNSLKPEDTAVYYCAAERYGYERYYWGQGTQVTVSS | high polyreactivity
28 | QVQLVESGVGLVQAGGSLRLSCAASGSIFPPYAMGWYRQAPGKERELVAAITSGGRTNYADSVKGRFTISRDNAKNTVYLQMNSLKPEDTEVYYCAQTGSYAKIRPNNDYWGQGTQVTVSS | low polyreactivity
29 | QVQLVESGVGLVQAGGSLRLSCAASGSIFYPYAMGWYRQAPGKERELVAAISSGGRTYDADSVKGRFTISRDNAKNTVYLQMNSLKPEDTAVSYCAARPKAYGRPPGYYWGQGTQVTVSS | high polyreactivity
30 | QVQLVESGVGLVQAGGSLRLSCAASGSIFYQNAMGWYRQAPGKEREFVAAITWIGGSTYYADSVKGRFTISRDNAKNTVYLQMNSLKPEDTAVYYCARRLLRGSDWGQGTQVTVSS | high polyreactivity
31 | QVQLVESGVGLVQAGGSLRLSCAASGSTFDANAMGWYIQAPGKERELVAAITSNGGSTYYADSVKGRFTISRDNAKNTVYLQMNSLKPEDTAVYYCASEQHTVQDYDYWGQGTQVTVSS | low polyreactivity
32 | QVQLVESGVGLVQAGGSLRLSCAASGSTFGGNAMGWYRQAPGKEREKVADITFSGGSTSYADSVKGRFTISRDNAKKTVYLQMNSLKPEDTAVYYCNRDYPEIIVAGLDYWGQGSQVTVSS | low polyreactivity
33 | QVQLVESGVGLVQAGGSLRLSCAASGSTFPKNVMGWYRQAPGKERELVAAINYSGTSTYYADSVKGRFTISRDNAKNTVYLQMNSLKPEDTAVYYCAARFPLVRYNYWGQGTQVTVSS | high polyreactivity
34 | QVQLVESGVGLVQAGGSLRLSCAASGSTFQPYSMGRYRQAPGKERELVAAIRSLAGSTYYADSVKGRFTISRDNAKNTVYLQMNSLKPEDTAVYYCAAGYNPYVGLGWYPIYDFWGQGTQVTVSS | low polyreactivity
35 | QVQLVESGVGLVQAGGSLRLSCAASGSTFSAYTMGWYRQAPGKERELVAAIRFDGGRTYYADSVKGRFTISRDNAKNTVYLQMNSLKPEDTAVYYCRAWQSYSYDYSGQGTQVTVSS | high polyreactivity
36 | QVQLVESGVGLVQAGGSLRLSCAASGSTFSNNAMGWYIQAPGKERELVAVITGDGGSTYYADSVKGRFTISRDIAKNTVYLQTNSLKPEDTAVYSCNARSSRYSRFRQRFGYWGQVTQVTVSS | low polyreactivity
37 | QVQLVESGVGLVQAGGSLRLSCAASGVTFYQYAMGWYRQAPGKERELVAAITRRGGSTSYADSVKGRFTISRDNAKNHVFLKMTRLIPEDTSVYYCNALYGSAFATQVESDYWGQGTQVNVSS | high polyreactivity
38 | QVQLVESGVGLVQAGGSLRLSCAAYGRTFYYYAMGWYRQAPGKERELVAGITWSGGSTKYADSVKGRFTISRDNAKNTVYLQMNSLKPEDTAVYYCNARPPRWVRSMDYWGQGTQVTVSS | high polyreactivity
39 | QVQLVESGVGLVQAGGSLRLSCADSGFTFFHYARGWYIQAPGKERELVAAIDYSAGSTYYADSVKGRFTISRDNAKNTVYLQMNSLKPEDTAVYYCAADARTSRGRRYYYWGQGTQVTVSS | low polyreactivity
40 | QVQLVESGVGLVQAGGSLRLSCAPSGRTFFWYAMGWYRPAPGKERELVAAIRGAGRTNYADSVKGRFTISRDNAKYTVYLHMNSLKPEDTAVYYCAAQHYPWRRYDYWGLGTQVTVSS | high polyreactivity
41 | QVQLVESGVGLVQAGGSLRLSCASSGRIFDLNSMGWYIQAPGKERELVAVIDRDGSTYYADSVKGRFTISRDNAKNTVYLQMNSLKPDDTAVYYCNKYWYSRHVRYWAYYAEQRYDYCGQGTQVTVSS | low polyreactivity
42 | QVQLVESGVGLVQAGGSLRLSCASSGSIFTPYAMGCYRQAPGKESELVAAISRSGGSTYYADSVKGRFTISRDNAKNTVFLQMNRLKPEDTAVYYCAVVVYDIYGYESDYWGEGTQVTVSS | low polyreactivity
43 | QVQLVESGVGLVQAGGSLRLSSAASGSTFGYYTMGWYRQAPGKERELVASISWSGASTHYADSVKGRFTISRDNAKNTVYLQMNSLKPDDTEVYYCAADWQQQPGTNSFDYWGQGTQVTVSS | low polyreactivity
